{"source": "patent US20240200091A1", "about": "“USE OF PROTOPORPHYRINOGEN OXIDASE” (BEIJING DABEINONG BIOTECHNOLOGY CO., LTD., priority 2021, published 2024)", "molecules": {"B1": {"name": "PPO11A: nucleotide sequence encoding microbial protoporphyrinogen oxidase PPO11 (SEQ ID NO:11), Arabidopsis thaliana/soybean common codon usage bias (nucleic acid)", "DNA": "ATGCAAAAAGCTCTTTTCCTCTACAGTTCAAGAGAAGGACAAACAAAGAAAATACTCAACTACATCAAGGAAGAACTATCAGAGTTTGATTGTGAGCTTGCTGATCTTCATCAGATTGAAGATATTGATTTAGCCTTGTATGATCGAGTATTAATAGGCGCAAGCATCCGGTATGGTCACTTGAACAAAAAGCTTTATCAGTTTATTGAGAAGCATGCTGAGCAACTTGCGCTGGCAAAAGCAGCTTTCTTCTGCGTGAATCTCACTGCAAGGAAAGAGGCTCAAGGAAAAGATACTCCGGAAGGTTCTGTTTACATAAAGACGTTTCTGTCCAAGTCTGCTTGGCAACCAAAGTTGATTGGAGTTTTTGCTGGTGCCCTATACTATCCTCGTTACCATTTCTTTGACAAAGTGATGATTAGATTCATCATGTCTTTAACCGGGGGAGAAACTGACACATCAAAAGAAGTTGAGTATACAAATTGGCAGAAAGTCTCGTTGTTTAGTGACAATTTCAAGAAGATGTGA", "modifications": "The nucleotide sequence of PPO11A"}, "B2": {"name": "PPO10A: nucleotide sequence encoding microbial protoporphyrinogen oxidase PPO10 (SEQ ID NO:10), Arabidopsis thaliana/soybean common codon usage bias (nucleic acid)", "DNA": "ATGAAAGCTCTCTTTCTGTACTCGTCTCAAGAAGGACAGACAAGGAAGATTATAGAGAGAATCGCCCAGCAAATGCCGGAGTATGATTGTGATATTCAAGATCTTCATCAAGTAAGCGACATTGCATTAGCTGATTATGACAAGATCCTAATAGGGGCCAGTATCCGATATGGAAGATTGAATGATAAACTATATCAATTTATTCAGAGATATCTTCCCGATCTCCGCTCCAACAAAGCAGCTTTCTTCTGCGTCAATCTTACGGCGAGAAAGGAAGAACAAGGAAAAGACACCCCAGAAGGTTCTGTTTACATCCAGACTTTCTTGAAGAAATCACCATGGCAACCTGAGAGGATTGCAGTGTTTGCTGGTGCTCTTTACTATCCTCGTTACAGATGGTTTGATAAGATGATGATTCGGTTAATAATGACTTTGACCGGCGGTGAAACTGATACATCAAAAGAAGTTGAGTACACAAATTGGAACAAGGTTTCTCAGTTTGCGGAGCAGTTCCGTAACTGGTGA", "modifications": "The nucleotide sequence of PPO10A"}, "B3": {"name": "PPO13A: nucleotide sequence encoding microbial protoporphyrinogen oxidase PPO13 (SEQ ID NO:13), Arabidopsis thaliana/soybean common codon usage bias (nucleic acid)", "DNA": "ATGGCTAAAGCTCTTTTCCTGTACTCATCTAGAGAAGGACAAACAAAGAAGATTCTTCATTACATAGACGAGAAGTTAACTGGGTTTGAGTGTGAACTCGTTGATTTGCACAATGTCGAAACTATTGATTTTTCTCAGTATGATAGAGTCTTAATTGGAGCGTCCATACGATATGGTCATCTCAACAAGAAATTATATCAGTTTATCGACCGTAACCTGAACCAGCTAGAGCAAAGCAAGGTAGCTTTCTTCTGCGTGAATCTCACCGCACGGAAAGAGGATCAAGGAAAAGATACTCCTGAAGGCTCAGCTTACATAAGGAAGTTTCTTATCAAATCGCCTTGGAAACCGACATTGATTGGTGTTTTCGCAGGTGCACTTTACTATCCAAGATATGGGTGGTTTGATAAAACAATGATCAAATTCATCATGAGTATGACTGGTGGAGAAACCGACACGACCAAGGAAGTTGAGTACACAAATTGGGAAAAAGTGGCCTTGTTTGCTGATAAGTTCAAGGAGCTATGA", "modifications": "The nucleotide sequence of PPO13A"}}}
{"tested_on": "Arabidopsis thaliana T1 plants", "assay": "sulfentrazone tolerance of transgenic Arabidopsis thaliana T1 plants (spray, grade of pesticide damage)", "type": "in vivo", "settings": "sulfentrazone 450 g ai/ha (1×), 7 DAT, number of plants of 24 per genotype, grades", "procedure,_shortened": "(§1)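 Herbicide rates in g ai/ha are as follows: oxyfluorfen 180 or 720, saflufenacil 25 or 100, flumioxazin 60 or 240, sulfentrazone 450 or 900, each against a water control. Sprays go onto PPO-transgenic T1 plants at 18 days. At 7 DAT, leaf-area injury is graded 0–3, with grades 0–1 counted as highly resistant.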"}
{"molecule": "B1", "The grade of pesticide: grade 0": 24, "The grade of pesticide: grade 1": 0, "The grade of pesticide: grade 2": 0, "The grade of pesticide: grade 3": 0}
{"molecule": "B2", "The grade of pesticide: grade 0": 24, "The grade of pesticide: grade 1": 0, "The grade of pesticide: grade 2": 0, "The grade of pesticide: grade 3": 0}
{"molecule": "B3", "The grade of pesticide: grade 0": 24, "The grade of pesticide: grade 1": 0, "The grade of pesticide: grade 2": 0, "The grade of pesticide: grade 3": 0}
{"tested_on": "Arabidopsis thaliana T1 plants", "assay": "sulfentrazone tolerance of transgenic Arabidopsis thaliana T1 plants (spray, grade of pesticide damage)", "type": "in vivo", "settings": "sulfentrazone 900 g ai/ha (2×), 7 DAT, number of plants of 24 per genotype, grades", "procedure,_shortened": "as §1"}
{"molecule": "B1", "The grade of pesticide: grade 0": 19, "The grade of pesticide: grade 1": 5, "The grade of pesticide: grade 2": 0, "The grade of pesticide: grade 3": 0}
{"molecule": "B2", "The grade of pesticide: grade 0": 20, "The grade of pesticide: grade 1": 4, "The grade of pesticide: grade 2": 0, "The grade of pesticide: grade 3": 0}
{"molecule": "B3", "The grade of pesticide: grade 0": 23, "The grade of pesticide: grade 1": 1, "The grade of pesticide: grade 2": 0, "The grade of pesticide: grade 3": 0}
{"tested_on": "Arabidopsis thaliana T1 plants", "assay": "saflufenacil tolerance of transgenic Arabidopsis thaliana T1 plants (spray, grade of pesticide damage)", "type": "in vivo", "settings": "saflufenacil 25 g ai/ha (1×), 7 DAT, number of plants of 24 per genotype, grades", "procedure,_shortened": "as §1", "units": {"The grade of pesticide damage/plant: grade 0": "plant", "The grade of pesticide damage/plant: grade 1": "plant", "The grade of pesticide damage/plant: grade 2": "plant", "The grade of pesticide damage/plant: grade 3": "plant"}}
{"molecule": "B1", "The grade of pesticide damage/plant: grade 0": 24, "The grade of pesticide damage/plant: grade 1": 0, "The grade of pesticide damage/plant: grade 2": 0, "The grade of pesticide damage/plant: grade 3": 0}
{"molecule": "B2", "The grade of pesticide damage/plant: grade 0": 24, "The grade of pesticide damage/plant: grade 1": 0, "The grade of pesticide damage/plant: grade 2": 0, "The grade of pesticide damage/plant: grade 3": 0}
{"molecule": "B3", "The grade of pesticide damage/plant: grade 0": 24, "The grade of pesticide damage/plant: grade 1": 0, "The grade of pesticide damage/plant: grade 2": 0, "The grade of pesticide damage/plant: grade 3": 0}
{"tested_on": "Arabidopsis thaliana T1 plants", "assay": "saflufenacil tolerance of transgenic Arabidopsis thaliana T1 plants (spray, grade of pesticide damage)", "type": "in vivo", "settings": "saflufenacil 100 g ai/ha (4×), 7 DAT, number of plants of 24 per genotype, grades", "procedure,_shortened": "as §1", "units": {"The grade of pesticide damage/plant: grade 0": "plant", "The grade of pesticide damage/plant: grade 1": "plant", "The grade of pesticide damage/plant: grade 2": "plant", "The grade of pesticide damage/plant: grade 3": "plant"}}
{"molecule": "B1", "The grade of pesticide damage/plant: grade 0": 0, "The grade of pesticide damage/plant: grade 1": 24, "The grade of pesticide damage/plant: grade 2": 0, "The grade of pesticide damage/plant: grade 3": 0}
{"molecule": "B2", "The grade of pesticide damage/plant: grade 0": 0, "The grade of pesticide damage/plant: grade 1": 24, "The grade of pesticide damage/plant: grade 2": 0, "The grade of pesticide damage/plant: grade 3": 0}
{"molecule": "B3", "The grade of pesticide damage/plant: grade 0": 0, "The grade of pesticide damage/plant: grade 1": 24, "The grade of pesticide damage/plant: grade 2": 0, "The grade of pesticide damage/plant: grade 3": 0}
{"tested_on": "Arabidopsis thaliana T1 plants", "assay": "flumioxazin tolerance of transgenic Arabidopsis thaliana T1 plants (spray, grade of pesticide damage)", "type": "in vivo", "settings": "flumioxazin 60 g ai/ha (1×), 7 DAT, number of plants of 24 per genotype, grades", "procedure,_shortened": "as §1", "units": {"The grade of pesticide damage/plant: grade 0": "plant", "The grade of pesticide damage/plant: grade 1": "plant", "The grade of pesticide damage/plant: grade 2": "plant", "The grade of pesticide damage/plant: grade 3": "plant"}}
{"molecule": "B1", "The grade of pesticide damage/plant: grade 0": 24, "The grade of pesticide damage/plant: grade 1": 0, "The grade of pesticide damage/plant: grade 2": 0, "The grade of pesticide damage/plant: grade 3": 0}
{"molecule": "B2", "The grade of pesticide damage/plant: grade 0": 24, "The grade of pesticide damage/plant: grade 1": 0, "The grade of pesticide damage/plant: grade 2": 0, "The grade of pesticide damage/plant: grade 3": 0}
{"molecule": "B3", "The grade of pesticide damage/plant: grade 0": 24, "The grade of pesticide damage/plant: grade 1": 0, "The grade of pesticide damage/plant: grade 2": 0, "The grade of pesticide damage/plant: grade 3": 0}
{"tested_on": "Arabidopsis thaliana T1 plants", "assay": "flumioxazin tolerance of transgenic Arabidopsis thaliana T1 plants (spray, grade of pesticide damage)", "type": "in vivo", "settings": "flumioxazin 240 g ai/ha (4×), 7 DAT, number of plants of 24 per genotype, grades", "procedure,_shortened": "as §1", "units": {"The grade of pesticide damage/plant: grade 0": "plant", "The grade of pesticide damage/plant: grade 1": "plant", "The grade of pesticide damage/plant: grade 2": "plant", "The grade of pesticide damage/plant: grade 3": "plant"}}
{"molecule": "B1", "The grade of pesticide damage/plant: grade 0": 20, "The grade of pesticide damage/plant: grade 1": 4, "The grade of pesticide damage/plant: grade 2": 0, "The grade of pesticide damage/plant: grade 3": 0}
{"molecule": "B2", "The grade of pesticide damage/plant: grade 0": 24, "The grade of pesticide damage/plant: grade 1": 0, "The grade of pesticide damage/plant: grade 2": 0, "The grade of pesticide damage/plant: grade 3": 0}
{"molecule": "B3", "The grade of pesticide damage/plant: grade 0": 19, "The grade of pesticide damage/plant: grade 1": 5, "The grade of pesticide damage/plant: grade 2": 0, "The grade of pesticide damage/plant: grade 3": 0}
{"tested_on": "Arabidopsis thaliana T1 plants", "assay": "oxyfluorfen tolerance of transgenic Arabidopsis thaliana T1 plants (spray, grade of pesticide damage)", "type": "in vivo", "settings": "oxyfluorfen 180 g ai/ha (1×), 7 DAT, number of plants of 24 per genotype, grades", "procedure,_shortened": "as §1", "units": {"The grade of pesticide damage/plant: grade 0": "plant", "The grade of pesticide damage/plant: grade 1": "plant", "The grade of pesticide damage/plant: grade 2": "plant", "The grade of pesticide damage/plant: grade 3": "plant"}}
{"molecule": "B1", "The grade of pesticide damage/plant: grade 0": 24, "The grade of pesticide damage/plant: grade 1": 0, "The grade of pesticide damage/plant: grade 2": 0, "The grade of pesticide damage/plant: grade 3": 0}
{"molecule": "B2", "The grade of pesticide damage/plant: grade 0": 24, "The grade of pesticide damage/plant: grade 1": 0, "The grade of pesticide damage/plant: grade 2": 0, "The grade of pesticide damage/plant: grade 3": 0}
{"molecule": "B3", "The grade of pesticide damage/plant: grade 0": 24, "The grade of pesticide damage/plant: grade 1": 0, "The grade of pesticide damage/plant: grade 2": 0, "The grade of pesticide damage/plant: grade 3": 0}
{"tested_on": "Arabidopsis thaliana T1 plants", "assay": "oxyfluorfen tolerance of transgenic Arabidopsis thaliana T1 plants (spray, grade of pesticide damage)", "type": "in vivo", "settings": "oxyfluorfen 720 g ai/ha (4×), 7 DAT, number of plants of 24 per genotype, grades", "procedure,_shortened": "as §1", "units": {"The grade of pesticide damage/plant: grade 0": "plant", "The grade of pesticide damage/plant: grade 1": "plant", "The grade of pesticide damage/plant: grade 2": "plant", "The grade of pesticide damage/plant: grade 3": "plant"}}
{"molecule": "B1", "The grade of pesticide damage/plant: grade 0": 21, "The grade of pesticide damage/plant: grade 1": 3, "The grade of pesticide damage/plant: grade 2": 0, "The grade of pesticide damage/plant: grade 3": 0}
{"molecule": "B2", "The grade of pesticide damage/plant: grade 0": 20, "The grade of pesticide damage/plant: grade 1": 4, "The grade of pesticide damage/plant: grade 2": 0, "The grade of pesticide damage/plant: grade 3": 0}
{"molecule": "B3", "The grade of pesticide damage/plant: grade 0": 18, "The grade of pesticide damage/plant: grade 1": 6, "The grade of pesticide damage/plant: grade 2": 0, "The grade of pesticide damage/plant: grade 3": 0}
